Laboratory results: the RNAGym collection of RNA variant scans (doi:10.7554/elife.80360)

B1: Twister Ribozyme (parent)
chain: AACACUGCCAAUGCCGGUCCCAAGCCCGGAUAAAAGUGGAGGGGGCGG

Variants of: B1
Assay: self-cleavage, relative activity (ratio to wild type); higher = more cleavage; co-transcriptional

Variant | self-cleavage
C8G C21A | 0.041
C8G C21U | 0.0624
C9A G42U | 0.149
C9A G42A | 0.149
C9U G36C | 0.12
C9U A23U | 0.0746
C9U A23G | 0.0717
C9U A32C | 0.64
C9U A32U | 0.585
C8U G39A | 0.161
C8U G39U | 0.136
C8A U31A | 0.433
C8A U31C | 0.652
A10C A23G | 0.453
C8G A11C | 0.55
C8G A11U | 0.691
C9A U18G | 0.159
C8A G16A | 0.153
C8A G16C | 0.0923
C9G U37A | 0.208
C9G U37C | 0.156
C9G G17A | 0.103
C9U G24U | 0.0861
C9A G38U | 0.32

Variant | self-cleavage
C9A C21A | 0.0865
C9A C21U | 0.0545
C9A C21G | 0.164
C8A G24A | 0.18
C8U A32C | 0.733
C9G G29C | 0.396
C9G G29U | 0.447
C9G G29A | 0.596
C9U C46U | 0.729
C9U G38U | 0.395
C8U A30U | 0.662
C9A A23U | 0.066
C9A A23C | 0.0979
C8U C19U | 0.35
C8U A11C | 0.89
C8U A11U | 0.973
C8A C21G | 0.076
C8A C21A | 0.0745
C8G G45C | 0.118
C8G G45A | 0.207
C8G G45U | 0.183
A10C A32C | 0.821
C9G G41A | 0.168
C8G A33G | 0.232

Variant | self-cleavage
C8G A33U | 0.279
C8U A34C | 0.134
C8U A34G | 0.582
C8U A34U | 0.308
C9U G16U | 0.373
C9U G16A | 0.405
C8U A22U | 0.419
C8U A22G | 0.1
C8U G13A | 0.342
C8U G13C | 0.121
C9U C14A | 0.56
C9U C14U | 0.596
C8G G42U | 0.147
C8G U12G | 0.676
C9U A40U | 0.162
C9U A40G | 0.14
C9U A40C | 0.161
C9U C20U | 0.264
C9U C20G | 0.0672
C9U C20A | 0.0526
C9A G41U | 0.179
C8A G41C | 0.124
C8A G41U | 0.146
C9G G16U | 0.346

Variant | self-cleavage
C8G A10C | 0.872
C8G A10G | 0.592
C8G G28U | 0.0873
C8G G28C | 0.083
C9G C15A | 0.278
C9G C15G | 0.0512
C9U G47A | 0.425
C9U G47U | 0.269
C8G G44A | 0.513
C8G G44U | 0.275
C9G C19G | 0.073
C9G C19A | 0.0927
C9G C19U | 0.144
C9G G38U | 0.387
C8A G29U | 0.295
C8A G29A | 0.327
C8A G29C | 0.0825
C9A G39C | 0.119
C9A G17A | 0.109
C8U C26A | 0.117
C9U U12C | 0.501
C8U A40G | 0.172
C8U A35U | 0.756
C8U A35C | 0.547

Variant | self-cleavage
C8A G42U | 0.168
C8A G42C | 0.285
C8A G42A | 0.141
C8G G43U | 0.148
C8G G43C | 0.139
C8G G43A | 0.137
C9A G29U | 0.686
C9A G29A | 0.627
C9A G29C | 0.307
C9U C25G | 0.113
C9A C46G | 0.59
C9U A11U | 0.84
C9U A11G | 0.597
C8U A33G | 0.25
C8U A33C | 0.447
C8U A33U | 0.531
C9U G13A | 1.03
C9U G13C | 0.592
C9U G43U | 0.126
C9U G43A | 0.137
C9A G44U | 0.544
C8G C26G | 0.12
C9A A33C | 0.603
C9G G42U | 0.119

Variant | self-cleavage
C9G A34C | 0.134
C9G A34G | 0.238
C8G C27A | 0.0513
C8G C27U | 0.14
C9U U31A | 0.667
C9U U31C | 0.708
C8G C46A | 0.231
C8G C46G | 0.344
A10C A11C | 0.907
A10C A11G | 1.12
A10C A11U | 0.883
C9U A30U | 0.579
C9A G43C | 0.0978
C9G G36A | 0.204
C9A A40U | 0.119
C9A A40C | 0.108
C9U G44U | 0.595
C9U G44C | 0.677
C9U G44A | 0.72
C9G A40U | 0.151
C9G A40G | 0.109
C9G A40C | 0.102
C8U C9U | 0.0747
C8U C9G | 0.158

Variant | self-cleavage
C9U G45C | 0.157
C8G C15G | 0.062
C8G C19U | 0.113
C8U G45A | 0.492
C8U G45C | 0.141
C8G G16A | 0.061
C8G G16C | 0.0753
C8U C25A | 0.0853
C8U C25U | 0.195
C8U C25G | 0.1
C9A G47C | 0.221
C9A G47U | 0.244
C9A G47A | 0.336
C8U G42A | 0.127
C8U G42U | 0.133
C8A G43C | 0.153
C8U U18G | 0.0414
C8U U18C | 0.0906
C9U C27U | 0.37
C9U C27G | 0.0911
C8A C27G | 0.0579
C8A C27A | 0.0935
C9A C14G | 0.0661
